The text below walks through data of publication doi:10.1101/2024.11.04.618112.

The test has as its target His10-pA-Tn5 (recombinant protein A-Tn5 transposase with an N-terminal His10-tag) (Escherichia coli) (UniProt Q46731). Description: SEC.

In the case of “His10-pA-Tn5 (recombinant protein A-Tn5 transposase with an N-terminal His10-tag) (from UniProt Q46731 1-476) (enzyme)”, the stoichiometry N came to 2.
